The text below walks through data of paper doi:10.64898/2025.12.10.693372.

What is called stoichiometry N is the number of molecules, sites or subunits per partner or assembly.

The target in assay [1] is SARS-CoV-2 Omicron LP.8.1 spike (S-6P) (SARS-CoV-2) (UniProt P0DTC2). The assay is described as follows: cryo-EM structure.
Assay [2] has as its target SARS-CoV-2 Omicron JD.1.1 spike (S-6P) (SARS-CoV-2) (UniProt P0DTC2). The assay is described as follows: cryo-EM structure.

As to “SARS-CoV-2 Omicron LP.8.1 spike (S-6P) (from UniProt P0DTC2 14-1211) (natural protein)”, the stoichiometry N in assay [1] is 3.
“SARS-CoV-2 Omicron JD.1.1 spike (S-6P) (from UniProt P0DTC2 14-1211) (natural protein)” displayed a stoichiometry N in assay [2] of 3.
